This is an account of results in patent publication US20030036092A1.

The test has as its target fluorogenic OmpT peptide substrate (BODIPY / trimethylrhodamine). Put plainly: cell-based or functional assay.

In the case of “OmpT protease, wild type, expressed from multicopy plasmid pML19 in E. coli UT5600 (from UniProt P09169 21-317) (enzyme)”, the mean fluorescence intensity of cells by FACS after exposure to the fluorogenic substrate amounted to 30 times.
